According to US20180312579A1 (Genentech, published 2018):

T1: recombinant human RSPO3 (human, UniProt Q9BXY4 22-272)
T1 sequence: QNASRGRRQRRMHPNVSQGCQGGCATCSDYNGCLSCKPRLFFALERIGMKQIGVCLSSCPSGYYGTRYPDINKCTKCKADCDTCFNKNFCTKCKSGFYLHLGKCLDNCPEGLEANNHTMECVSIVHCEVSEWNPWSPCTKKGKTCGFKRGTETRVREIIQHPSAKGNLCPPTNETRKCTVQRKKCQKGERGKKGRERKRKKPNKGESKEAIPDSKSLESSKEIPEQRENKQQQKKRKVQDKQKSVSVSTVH

T2: cynomolgus RSPO3 (cynomolgus, UniProt A0A2K5UTQ7 22-273)
T2 sequence: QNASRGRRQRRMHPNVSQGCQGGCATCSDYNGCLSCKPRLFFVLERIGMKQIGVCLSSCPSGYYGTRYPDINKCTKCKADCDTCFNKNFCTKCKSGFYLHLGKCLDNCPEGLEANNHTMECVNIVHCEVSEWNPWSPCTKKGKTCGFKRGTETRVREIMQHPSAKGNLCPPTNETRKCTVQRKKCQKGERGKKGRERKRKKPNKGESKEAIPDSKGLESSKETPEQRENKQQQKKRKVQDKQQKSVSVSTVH

T3: mouse RSPO3 (mouse, UniProt Q2TJ95 22-277, limits assumed)
T3 sequence (looked up): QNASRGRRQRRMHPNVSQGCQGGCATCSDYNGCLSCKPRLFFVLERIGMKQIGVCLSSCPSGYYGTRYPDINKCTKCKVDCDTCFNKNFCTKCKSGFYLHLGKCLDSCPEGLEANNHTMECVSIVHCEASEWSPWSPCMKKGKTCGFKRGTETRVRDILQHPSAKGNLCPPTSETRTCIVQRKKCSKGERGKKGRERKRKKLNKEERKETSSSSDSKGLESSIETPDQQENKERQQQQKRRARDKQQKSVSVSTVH

T4: human RSPO3 with C-terminal HA tag, stably expressed in 293 cells (human, UniProt Q9BXY4 22-272)
T4 construct: Whole open reading frame expressed in HEK-293 cells (high, medium, low); FFPE pellets; also called hRSPO3; RSPO3 Hi
T4 sequence: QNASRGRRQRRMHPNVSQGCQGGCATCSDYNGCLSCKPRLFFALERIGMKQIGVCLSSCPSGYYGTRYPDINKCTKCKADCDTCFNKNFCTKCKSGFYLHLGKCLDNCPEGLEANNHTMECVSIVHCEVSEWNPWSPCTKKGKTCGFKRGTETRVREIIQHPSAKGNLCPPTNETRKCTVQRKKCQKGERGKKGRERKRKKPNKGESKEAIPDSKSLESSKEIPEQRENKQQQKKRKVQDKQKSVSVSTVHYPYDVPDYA

T5: FLAG-tagged human RSPO3 (Genentech) (human, UniProt Q9BXY4 22-272)
T5 construct: also called hRSPO3; RSPO3 coated plates; not shown: FLAG tag
T5 sequence: T1 sequence

B1: 5D6 (antibody, V domains shown)
VH: EVQLQESGPSLVKPSQTLSLTCSVTGDSITSGYWNWIRKFPGNKFEYMGYISYSGKTYQNPSLKSRISITRDTSKNQYHLQLNSVTTEDTATYYCATYYGYGGPWFAYWGQGTLVTVSA
VL: DIVLTQSPSSMYASLGERVTITCKASQDIDSYLSWFQQKPGKSPKTLIYLTNRLVDGVPSRFSGSGSGQDYSLTISSLEYEDMGIYYCLHYDEFPLTFGAGTKLEIK
notes: Murine; also called monoclonal antibody 5D6; mu5D6
B2: 5C2 (antibody, V domains shown)
VH: EVQLQESGPGLVAPSQSLSITCTVSGFSLTSYGVHWVRQPPGKGLEWLGVIWTGGSTNYNSALMSRLSISKDNSKSQVFLKMNSLQTDDTAMYYCARVDGYYYFDYWGQGTTLTVSS
VL: DIVMTQSTSSLSASLGDRVTISCRASQDISNYLNWYQQKPDGTVKLLIYYTSRLHSGVPSRFSGSGSGTDYSLTISNLEPEDIATYFCQQGDTLPPTFGGGTKLEIK
notes: also called monoclonal antibody 5C2
B3: 4H1 (antibody, V domains shown)
VH: EVKLVESGGGFVKPGGSLKLSCAASGFTFSNFAMSWVRQSPEKRLEWVAEINNGGNYAYYQDTVTGRFTISRDNAKNTLYLEMSSLRSEDTAMYFCAREDYVNYEAYFAYWGQGTTLTVSS
VL: SIVMTQTPLSLPVSLGDQASISCRSSQSIVHSNGNTYLEWYLQKPGQSPKLLIYRISNRFSGVPDRFSGSGSGTDFTLKISRVEAEDLGVYYCFQGSHVPYTFGGGTKLEIK
notes: Hybridoma-derived monoclonal (mice or hamsters immunized with hRSPO2 and/or hRSPO3), cloned, expressed and purified; also called monoclonal antibody 4H1
B4: 21C2 (antibody, V domains shown)
VH: QVQLQQSGAELVRPGVSVKISCKGSGYTFTDYVIHWVKQSHAKSLEWIGVITTYYGDASYNQKFKGKATMTVDKSSSTAYMELARLTSEDSAIYYCARGAYGNSPSYWYFDVWGAGTSVTVSS
VL: DIVLTQSPASLTVSLGQRATISCRASESVDSYGNTFMHWYQQKPGQPPKLLIYLASNLESGVPARFSGSGSRTDFTLTIDPVEADDAATYYCQQNNEDPYTFGGGTKLEIK
notes: also called monoclonal antibody 21C2

Target: recombinant human RSPO2 (human, UniProt Q6UXX9 22-243)
Assay: cell-based or functional assay

recombinant human RSPO2, sequence (Q6UXX9 22-243): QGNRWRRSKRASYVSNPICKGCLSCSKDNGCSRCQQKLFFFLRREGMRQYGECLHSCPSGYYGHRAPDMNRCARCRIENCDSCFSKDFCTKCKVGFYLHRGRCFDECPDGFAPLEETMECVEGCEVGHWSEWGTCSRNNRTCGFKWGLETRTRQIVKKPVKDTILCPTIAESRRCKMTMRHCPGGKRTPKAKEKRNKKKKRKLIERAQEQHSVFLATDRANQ

Row | Binder | IC50, WNT luciferase reporter, bivalent antibody
1 | B1 | > 500 nM
2 | B2 | > 500 nM
3 | B3 | 6.4 nM

Target: T1, recombinant human RSPO3
Assay: cell-based or functional assay

Row | Binder | IC50, WNT luciferase reporter, bivalent antibody
4 | B1 | 0.0003 nM
5 | B2 | 0.65 nM
6 | B3 | 0.8 nM

Target: T2, cynomolgus RSPO3
Assay: cell-based or functional assay

Row | Binder | IC50, WNT luciferase reporter, bivalent antibody
7 | B1 | 0.0003 nM
8 | B2 | 1.3 nM
9 | B3 | 0.29 nM

Target: T3, mouse RSPO3
Assay: cell-based or functional assay

Row | Binder | IC50, WNT luciferase reporter, bivalent antibody
10 | B1 | 0.001 nM
11 | B2 | 0.47 nM
12 | B3 | 0.69 nM

Target: cynomolgus RSPO2 (cynomolgus, UniProt G7PCH9 22-243)
Assay: cell-based or functional assay

cynomolgus RSPO2, sequence (G7PCH9 entry or part of it): as the sequence (Q6UXX9 22-243) above, with V160A, L165P, T178A counted along it

Row | Binder | IC50, WNT luciferase reporter, bivalent antibody
13 | B1 | > 500 nM
14 | B2 | > 500 nM
15 | B3 | 2.8 nM

Target: mouse RSPO2 (mouse, UniProt Q8BFU0 22-205, limits assumed)
Assay: cell-based or functional assay

mouse RSPO2, sequence (Q8BFU0 22-205 limits assumed): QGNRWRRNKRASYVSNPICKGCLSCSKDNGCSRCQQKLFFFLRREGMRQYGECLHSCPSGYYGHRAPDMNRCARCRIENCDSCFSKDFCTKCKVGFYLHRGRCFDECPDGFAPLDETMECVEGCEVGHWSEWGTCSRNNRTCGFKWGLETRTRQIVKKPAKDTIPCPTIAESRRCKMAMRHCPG

Row | Binder | IC50, WNT luciferase reporter, bivalent antibody
16 | B1 | > 500 nM
17 | B2 | > 500 nM
18 | B3 | > 500 nM

Target: T4, human RSPO3 with C-terminal HA tag, …
Assay: IHC, FFPE 293 cell pellet, RSPO3 Hi

Row | Binder | percentage of cells staining
19 | B1 | > 95%
20 | B2 | > 95%
21 | B3 | 90%
22 | B4 | 95%

Target: T4, human RSPO3 with C-terminal HA tag, …
Assay: IHC, FFPE 293 cell pellet, RSPO3 Low

Row | Binder | percentage of cells staining
23 | B1 | 30%
24 | B2 | 40%
25 | B3 | 30%
26 | B4 | 10%

Target: T4, human RSPO3 with C-terminal HA tag, …
Assay: IHC, FFPE 293 cell pellet, RSPO3 Med

Row | Binder | percentage of cells staining
27 | B1 | 70%
28 | B2 | 60%
29 | B3 | 60%
30 | B4 | 60%

Target: T6, human RSPO1 with C-terminal HA tag, stably expressed in 293 cells (human, UniProt Q2MKA7 21-263)
T6 construct: also called hRSPO1; RSPO1 Hi
Assay: IHC, FFPE 293 cell pellet, RSPO1 Hi; - = not significant staining

T6 sequence (Q2MKA7 other isoform, or with tags, fused parts or gaps limits assumed): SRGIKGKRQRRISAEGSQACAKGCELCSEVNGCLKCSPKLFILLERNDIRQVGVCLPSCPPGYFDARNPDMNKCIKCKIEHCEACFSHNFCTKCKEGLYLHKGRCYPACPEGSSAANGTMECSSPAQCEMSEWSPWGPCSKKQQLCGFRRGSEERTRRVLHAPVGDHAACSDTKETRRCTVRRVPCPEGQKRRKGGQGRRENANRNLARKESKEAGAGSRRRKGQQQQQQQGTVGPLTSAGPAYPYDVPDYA

Row | Binder | binding result
31 | B1 | no binding
32 | B2 | no binding
33 | B3 | no binding
34 | B4 | no binding

Target: T7, human RSPO4 with C-terminal HA tag, stably expressed in 293 cells (human, UniProt Q2I0M5 20-234)
T7 construct: also called hRSPO4; RSPO4 Hi
Assay: IHC, FFPE 293 cell pellet, RSPO4 Hi; - = not significant staining

T7 sequence (Q2I0M5 other isoform, or with tags, fused parts or gaps limits assumed): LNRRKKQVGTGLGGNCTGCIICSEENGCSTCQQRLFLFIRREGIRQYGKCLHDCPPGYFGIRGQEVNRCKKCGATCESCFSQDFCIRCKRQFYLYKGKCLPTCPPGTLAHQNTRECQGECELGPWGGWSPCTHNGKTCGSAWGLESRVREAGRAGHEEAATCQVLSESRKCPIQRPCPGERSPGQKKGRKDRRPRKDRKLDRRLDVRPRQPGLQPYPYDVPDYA

Row | Binder | binding result
35 | B1 | no binding
36 | B2 | no binding
37 | B3 | no binding
38 | B4 | no binding

Target: T5, FLAG-tagged human RSPO3 (Genentech)
Assay: competitive binding ELISA: titrated against biotinylated RNF43-Flag (RNF43-ECD) binding to plate-coated hRSPO3; signal = bound RNF43, normalized OD

Row | Binder | IC50 (read off the curve)
39 | B1 | ~0.1 µg/mL
40 | B3 | ~0.08 µg/mL

Target: T5, FLAG-tagged human RSPO3 (Genentech)
Assay: competitive binding ELISA: antibody titrated against LGR4-Fc (LGR4-ECD) binding to plate-coated hRSPO3; signal = bound LGR4-Fc, OD(450/630)/OD no antibody
Experimental: To measure the activity of anti-RSPO antibodies in blocking the binding of LGR4 and -5 ECDs to RSPOs, MaxiSorp 384-well microwell plates (Thermo Scientific Nunc, Roskilde, Denmark) were coated with 25 ul/well of 0.5 μg/ml hRSPO2 or hRSPO3 (Genentech) in 50 mM carbonate buffer, pH 9.6, overnight at 4° C. Plates were blocked with at 80 ul/well of 0.5% bovine serum albumin, 15 parts per million Proclin 300 in phosphate buffered saline (PBS), pH 7.4, for 1 hour. Serially diluted anti-RSPO antibodies ([…] in […] serial dilution plus buffer blank) containing 0.1 μg/ml LGR4-Fc or 0.015 μg/ml LGR5-Fc in assay buffer (0.5% BSA, 0.05% polysorbate 20, 15 parts per million Proclin 300 in PBS) were added to the plates at 25 ul/well. After a 2-hour incubation, LGR4-Fc and LGR5-Fc bound to the plates were detected using peroxidase labeled goat F(ab′)2 anti-human Fc (Jackson ImmunoResearch, West Grove, Pa.). After a 1 hour incubation, the substrate 3,3′,5,5′-tetramethyl benzidine (Moss Inc., Pasadena, Md.) was added to the plates and the reaction was stopped by adding 1 M phosphoric acid. Plates were washed with PBS, pH 7.4, containing 0.05% tween 20, between steps and all the incubation steps following the coating step were performed at room temperature on an orbital shaker. Absorbance was read at 450 nm on a multiskan Ascent reader (Thermo Scientific, Hudson, N.H.).

Row | Binder | IC50 (read off the curve)
41 | B1 | ~0.1 µg/mL
42 | B2 | ~0.1 µg/mL
43 | B3 | ~0.1 µg/mL
44 | B4 | ~0.1 µg/mL
